The supplement of paper PMC6757056
± gives the standard deviation of the averaged measurements.

B1: library; a variant is named by its letters at N, in order (parent)
chain: GCUGUCACCGAGAAACUGUGAAGUAUAUCUUAAACCUGGGCACUUAAAAGAUAUAUGGAGUUAGUAGUGCAACCUGCUCGGUCUGAUGAGUCCNNNNNNGGACGAAACAGC

Legend:
[1] = variants of: B1; test: normalized RNA/DNA level without ligand (relative to sTRSVctl = 100) (log10 (% of sTRSVctl)); HEK293T; ligand: cyclic di-GMP (c-di-GMP-II aptamer); higher = less ribozyme self-cleavage, higher mRNA level; settings: reporter: mCherry (pCS4076), ligand present: no
Summary of the method: (§1)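 Library plasmids carrying ribozyme switches linked to mCherry, or to eGFP in some ligand experiments, were transfected into HEK293T at 4 µg per 6-well well, with any ligand added 1 h earlier. Seventy-two hours on, total RNA was extracted with EDTA and reverse-transcribed, amplified, barcoded and sequenced. RNA level was RNA over DNA reads normalized to a spiked-in non-cleaving sequence or to the top sequences, then scaled and log-transformed. The top set was 25 sequences, the transform was ×100 and log10, and sequences needed ≥100 DNA reads.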

[2] = variants of: B1; test: normalized RNA/DNA level with ligand (relative to sTRSVctl = 100) (log10 (% of sTRSVctl)); HEK293T; ligand: cyclic di-GMP (c-di-GMP-II aptamer); ligand concentration (+) RNA-Seq: 1 mM; higher = less ribozyme self-cleavage, higher mRNA level; settings: reporter: mCherry (pCS4076), ligand present: yes
Summary of the method: as §1

Variant	normalized RNA/DNA level without ligand (log10) [1]	normalized RNA/DNA level with ligand (log10) [2]
GCUGUCACCGAGAAACUGUGAAGUAUAUCUUAAACCUGGGCACUUAAAAGAUAUAUGGAGUUAGUAGUGCAACCUGCUCGGUCUGAUGAGUCCAUAUACGGACGAAACAGC [AUAUAC]	1.68 ± 0.019	1.82 ± 0.12
GCUGUCACCGAGAAACUGUGAAGUAUAUCUUAAACCUGGGCACUUAAAAGAUAUAUGGAGUUAGUAGUGCAACCUGCUCGGUCUGAUGAGUCCCUGGCGGGACGAAACAGC [CUGGCG]	1.74 ± 0.057	1.85 ± 0.092
GCUGUCACCGAGAAACUGUGAAGUAUAUCUUAAACCUGGGCACUUAAAAGAUAUAUGGAGUUAGUAGUGCAACCUGCUCGGUCUGAUGAGUCCGACUAGGGACGAAACAGC [GACUAG]	1.668 ± 0.0042	1.79 ± 0.16
GCUGUCACCGAGAAACUGUGAAGUAUAUCUUAAACCUGGGCACUUAAAAGAUAUAUGGAGUUAGUAGUGCAACCUGCUCGGUCUGAUGAGUCCUCAGAGGGACGAAACAGC [UCAGAG]	1.53 ± 0.045	1.69 ± 0.042
GCUGUCACCGAGAAACUGUGAAGUAUAUCUUAAACCUGGGCACUUAAAAGAUAUAUGGAGUUAGUAGUGCAACCUGCUCGGUCUGAUGAGUCCAUUAGUGGACGAAACAGC [AUUAGU]	1.686 ± 0.01	1.83 ± 0.11
GCUGUCACCGAGAAACUGUGAAGUAUAUCUUAAACCUGGGCACUUAAAAGAUAUAUGGAGUUAGUAGUGCAACCUGCUCGGUCUGAUGAGUCCUCAAUCGGACGAAACAGC [UCAAUC]	1.63 ± 0.01	1.8 ± 0.12
GCUGUCACCGAGAAACUGUGAAGUAUAUCUUAAACCUGGGCACUUAAAAGAUAUAUGGAGUUAGUAGUGCAACCUGCUCGGUCUGAUGAGUCCAAAGAAGGACGAAACAGC [AAAGAA]	1.34 ± 0.14	1.55 ± 0.1
GCUGUCACCGAGAAACUGUGAAGUAUAUCUUAAACCUGGGCACUUAAAAGAUAUAUGGAGUUAGUAGUGCAACCUGCUCGGUCUGAUGAGUCCCUCGUGGGACGAAACAGC [CUCGUG]	1.63 ± 0.047	1.82 ± 0.088
GCUGUCACCGAGAAACUGUGAAGUAUAUCUUAAACCUGGGCACUUAAAAGAUAUAUGGAGUUAGUAGUGCAACCUGCUCGGUCUGAUGAGUCCUUCUCGGGACGAAACAGC [UUCUCG]	1.8 ± 0.065	1.91 ± 0.15
GCUGUCACCGAGAAACUGUGAAGUAUAUCUUAAACCUGGGCACUUAAAAGAUAUAUGGAGUUAGUAGUGCAACCUGCUCGGUCUGAUGAGUCCGGGGCCGGACGAAACAGC [GGGGCC]	1.85 ± 0.069	1.94 ± 0.13
GCUGUCACCGAGAAACUGUGAAGUAUAUCUUAAACCUGGGCACUUAAAAGAUAUAUGGAGUUAGUAGUGCAACCUGCUCGGUCUGAUGAGUCCGACGGCGGACGAAACAGC [GACGGC]	1.627 ± 0.0064	1.72 ± 0.088
GCUGUCACCGAGAAACUGUGAAGUAUAUCUUAAACCUGGGCACUUAAAAGAUAUAUGGAGUUAGUAGUGCAACCUGCUCGGUCUGAUGAGUCCCAUGUCGGACGAAACAGC [CAUGUC]	1.72 ± 0.035	1.82 ± 0.088
GCUGUCACCGAGAAACUGUGAAGUAUAUCUUAAACCUGGGCACUUAAAAGAUAUAUGGAGUUAGUAGUGCAACCUGCUCGGUCUGAUGAGUCCGCAUUUGGACGAAACAGC [GCAUUU]	1.55 ± 0.037	1.74 ± 0.095
